This series deals with T1, ETS1 (Homo sapiens, UniProt P14921).
T1 sequence: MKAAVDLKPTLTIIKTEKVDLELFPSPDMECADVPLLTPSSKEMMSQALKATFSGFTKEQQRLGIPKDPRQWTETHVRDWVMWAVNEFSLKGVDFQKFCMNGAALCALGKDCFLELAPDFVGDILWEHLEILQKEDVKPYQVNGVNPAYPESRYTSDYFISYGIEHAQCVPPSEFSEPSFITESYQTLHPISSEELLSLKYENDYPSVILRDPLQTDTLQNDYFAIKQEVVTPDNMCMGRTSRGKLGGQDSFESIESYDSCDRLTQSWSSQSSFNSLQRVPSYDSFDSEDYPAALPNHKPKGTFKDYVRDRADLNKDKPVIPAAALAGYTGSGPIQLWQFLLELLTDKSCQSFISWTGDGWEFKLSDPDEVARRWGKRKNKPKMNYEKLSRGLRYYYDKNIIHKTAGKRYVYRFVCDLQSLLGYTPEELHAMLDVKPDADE
Kind of series: gcPBM; 1 nM ETS1. To be noted: tags: N-terminal GST (pDEST15), kept (PMC6008103); label: surface-attached array probe.

B1: Table S2 B row 4047 (dsDNA)
DNA 1: CCGCTCTTCCTGGAGGTCTCTTGGCCGCTCACCCTC
DNA 2: GAGGGTGAGCGGCCAAGAGACCTCCAGGAAGAGCGG
On to B1, for which the binding signal was 1540 PBM fluorescence, median of replicate spots.

B2: Table S2 B row 3076 (dsDNA)
DNA 1: AGGCCTCGCTTCCTCTCCTGAGCACACCCTGCAGCT
DNA 2: AGCTGCAGGGTGTGCTCAGGAGAGGAAGCGAGGCCT
Turning to B2, the binding signal was 2200 PBM fluorescence, median of replicate spots.

B3: Table S2 B row 1819 (dsDNA)
DNA 1: CCGATTTCCCCGGACGTGGTGAGACGGCGCTTCGTC
DNA 2: GACGAAGCGCCGTCTCACCACGTCCGGGGAAATCGG
For B3, the binding signal was 1790 PBM fluorescence, median of replicate spots.

B4: Table S2 B row 618 (dsDNA)
DNA 1: GCGCAAGGATCCGGTTTGTTCTGGTGTGGGGAGGGG
DNA 2: CCCCTCCCCACACCAGAACAAACCGGATCCTTGCGC
As for B4, the binding signal was 2310 PBM fluorescence, median of replicate spots.

B5: Table S2 B row 1406 (dsDNA)
DNA 1: GCACACACACATCCTCCCGGCCCGGCCGCCGCCGCT
DNA 2: AGCGGCGGCGGCCGGGCCGGGAGGATGTGTGTGTGC
As for B5, the binding signal is 2180 PBM fluorescence, median of replicate spots.

B6: Table S2 B row 528 (dsDNA)
DNA 1: CGAACTACATCCTCTGAGGTGTAGCTTTTTGGCCTG
DNA 2: CAGGCCAAAAAGCTACACCTCAGAGGATGTAGTTCG
On to B6, for which the binding signal was 2040 PBM fluorescence, median of replicate spots.

B7: Table S2 B row 1285 (dsDNA)
DNA 1: TTAAACACGGAAGTGCATCGGTTGTTGTAGTTATTC
DNA 2: GAATAACTACAACAACCGATGCACTTCCGTGTTTAA
For B7, the binding signal was 2090 PBM fluorescence, median of replicate spots.

B8: Table S2 B row 1905 (dsDNA)
DNA 1: ACTTCCAGGAAGCCCCATAGTCCAGAAACCTACACA
DNA 2: TGTGTAGGTTTCTGGACTATGGGGCTTCCTGGAAGT
Take B8: the binding signal is 2110 PBM fluorescence, median of replicate spots.

B9: Table S2 B row 1261 (dsDNA)
DNA 1: ACTCCAGAGGAAGTGGCAAGACGAGCGCGGCAACGG
DNA 2: CCGTTGCCGCGCTCGTCTTGCCACTTCCTCTGGAGT
Take B9: the binding signal was 2240 PBM fluorescence, median of replicate spots.

B10: Table S2 B row 1694 (dsDNA)
DNA 1: CCCTTCCTGAGGGCAAGGCGAGGGCACCTACAGCCT
DNA 2: AGGCTGTAGGTGCCCTCGCCTTGCCCTCAGGAAGGG
Take B10: the binding signal is 1830 PBM fluorescence, median of replicate spots.

B11: Table S2 B row 3763 (dsDNA)
DNA 1: GCGCCCCGTCCTTCCGCAGCCCAAGCGCCTCTTCCC
DNA 2: GGGAAGAGGCGCTTGGGCTGCGGAAGGACGGGGCGC
Regarding B11, the binding signal was 1510 PBM fluorescence, median of replicate spots.

B12: Table S2 B row 3748 (dsDNA)
DNA 1: GATTCATATCCTCCTCTATGCAACGACAGCATCTTC
DNA 2: GAAGATGCTGTCGTTGCATAGAGGAGGATATGAATC
As for B12, the binding signal was 2160 PBM fluorescence, median of replicate spots.

B13: Table S2 B row 753 (dsDNA)
DNA 1: AGGGACTTCCGGTGACCAGAGCACTAGCGCCGTAAA
DNA 2: TTTACGGCGCTAGTGCTCTGGTCACCGGAAGTCCCT
Take B13: the binding signal was 55700 PBM fluorescence, median of replicate spots.

B14: Table S2 B row 606 (dsDNA)
DNA 1: TCCGGAAGTCGGAGGAACACCCCAGCCGGCGCAGCC
DNA 2: GGCTGCGCCGGCTGGGGTGTTCCTCCGACTTCCGGA
As for B14, the binding signal is 2610 PBM fluorescence, median of replicate spots.

B15: Table S2 B row 1858 (dsDNA)
DNA 1: TGGCTTCCTGTCTGTCCTTCATCAGCCCAGAGAGGC
DNA 2: GCCTCTCTGGGCTGATGAAGGACAGACAGGAAGCCA
Turning to B15, the binding signal was 20600 PBM fluorescence, median of replicate spots.

B16: Table S2 B row 269 (dsDNA)
DNA 1: AGAAAAGGAAATGGTGGGCTGCACACCCCAGCTCAC
DNA 2: GTGAGCTGGGGTGTGCAGCCCACCATTTCCTTTTCT
Regarding B16, the binding signal is 1890 PBM fluorescence, median of replicate spots.

B17: Table S2 B row 2482 (dsDNA)
DNA 1: TGCGACGGAAGCAGGAACTTGCTAACTACAAAACCC
DNA 2: GGGTTTTGTAGTTAGCAAGTTCCTGCTTCCGTCGCA
Turning to B17, the binding signal was 1960 PBM fluorescence, median of replicate spots.

B18: Table S2 B row 1511 (dsDNA)
DNA 1: GCACCGTGGCACTTCCGCGAGCGCCGCTGGCCCTGC
DNA 2: GCAGGGCCAGCGGCGCTCGCGGAAGTGCCACGGTGC
With B18, the binding signal is 2410 PBM fluorescence, median of replicate spots.

B19: Table S2 B row 3457 (dsDNA)
DNA 1: CCACTGCCGGAAGGGGAACTCTGGGGGTGCGCGAGT
DNA 2: ACTCGCGCACCCCCAGAGTTCCCCTTCCGGCAGTGG
Turning to B19, the binding signal was 2580 PBM fluorescence, median of replicate spots.

B20: Table S2 B row 1755 (dsDNA)
DNA 1: CAGAAAGAGGAAATGATGCGAGTCCACACCGAAGGC
DNA 2: GCCTTCGGTGTGGACTCGCATCATTTCCTCTTTCTG
For B20, the binding signal is 2640 PBM fluorescence, median of replicate spots.

B21: Table S2 B row 591 (dsDNA)
DNA 1: CACCTCCTACTTCCCCCCGCTGATAACTACCAACCC
DNA 2: GGGTTGGTAGTTATCAGCGGGGGGAAGTAGGAGGTG
Turning to B21, the binding signal was 1740 PBM fluorescence, median of replicate spots.

B22: Table S2 B row 713 (dsDNA)
DNA 1: CCCTTCCGCGTGGGTTGCACCTGCTAATCACAGAGC
DNA 2: GCTCTGTGATTAGCAGGTGCAACCCACGCGGAAGGG
As for B22, the binding signal was 1660 PBM fluorescence, median of replicate spots.

B23: Table S2 B row 1696 (dsDNA)
DNA 1: CTCATCAGTCATCCGGCTGGACTGCAGGAGCTCTCC
DNA 2: GGAGAGCTCCTGCAGTCCAGCCGGATGACTGATGAG
For the molecule B23, the binding signal was 1700 PBM fluorescence, median of replicate spots.

B24: Table S2 B row 4071 (dsDNA)
DNA 1: ATGGAAATGTCGTTAAGAACTTCCTCTTTTACTAGA
DNA 2: TCTAGTAAAAGAGGAAGTTCTTAACGACATTTCCAT
For the molecule B24, the binding signal was 2700 PBM fluorescence, median of replicate spots.

B25: Table S2 B row 3693 (dsDNA)
DNA 1: ACCAAAACACATCCTGGGGCCCCTCACAATTAGTGA
DNA 2: TCACTAATTGTGAGGGGCCCCAGGATGTGTTTTGGT
On to B25, for which the binding signal is 2280 PBM fluorescence, median of replicate spots.

B26: Table S2 B row 1848 (dsDNA)
DNA 1: TCCCGGGGAGGAAGTGGCGAGAATTCGGGGGTGGGC
DNA 2: GCCCACCCCCGAATTCTCGCCACTTCCTCCCCGGGA
For B26, the binding signal is 2460 PBM fluorescence, median of replicate spots.

B27: Table S2 B row 3568 (dsDNA)
DNA 1: GAACCCCAAGTTCCGGCTGGCACTGCGCCGGAGCCT
DNA 2: AGGCTCCGGCGCAGTGCCAGCCGGAACTTGGGGTTC
Regarding B27, the binding signal is 2450 PBM fluorescence, median of replicate spots.

B28: Table S2 B row 1194 (dsDNA)
DNA 1: TGAGTTTTGTTTCCGATTCACCTCAGAAGATACTTT
DNA 2: AAAGTATCTTCTGAGGTGAATCGGAAACAAAACTCA
B28: the binding signal was 1570 PBM fluorescence, median of replicate spots.

B29: Table S2 B row 1455 (dsDNA)
DNA 1: AGTGAGCTTCCTCCTGAGGCCTGAGGCAACCCCAGG
DNA 2: CCTGGGGTTGCCTCAGGCCTCAGGAGGAAGCTCACT
For the molecule B29, the binding signal is 1620 PBM fluorescence, median of replicate spots.

B30: Table S2 B row 2614 (dsDNA)
DNA 1: GGCTTCCGCGCCTGCAGAACTACAGCTCCCAGAAGG
DNA 2: CCTTCTGGGAGCTGTAGTTCTGCAGGCGCGGAAGCC
For B30, the binding signal was 2000 PBM fluorescence, median of replicate spots.

B31: Table S2 B row 2348 (dsDNA)
DNA 1: CAAAAGTGCTTCCTCTCGAGGGGTTGTAGTTCTTAC
DNA 2: GTAAGAACTACAACCCCTCGAGAGGAAGCACTTTTG
As to B31, the binding signal is 1960 PBM fluorescence, median of replicate spots.

B32: Table S2 B row 1189 (dsDNA)
DNA 1: TCCAGCGGAAGGGGGCATCTTTACGGCAGAGGCAGC
DNA 2: GCTGCCTCTGCCGTAAAGATGCCCCCTTCCGCTGGA
For the molecule B32, the binding signal was 1600 PBM fluorescence, median of replicate spots.

B33: Table S2 B row 1838 (dsDNA)
DNA 1: GTACGTTTCCTCATTGACTGGCCAACGACTATCATG
DNA 2: CATGATAGTCGTTGGCCAGTCAATGAGGAAACGTAC
Take B33: the binding signal was 2340 PBM fluorescence, median of replicate spots.

B34: Table S2 B row 3942 (dsDNA)
DNA 1: GAAATTTCCGCTTTCTTTCTGCAGCAGGAACCTCGG
DNA 2: CCGAGGTTCCTGCTGCAGAAAGAAAGCGGAAATTTC
As for B34, the binding signal is 21200 PBM fluorescence, median of replicate spots.

B35: Table S2 B row 992 (dsDNA)
DNA 1: TATCGACAAAAGTTCCGGCCCGCGGCAGCGGAGGGA
DNA 2: TCCCTCCGCTGCCGCGGGCCGGAACTTTTGTCGATA
In the case of B35, the binding signal was 1930 PBM fluorescence, median of replicate spots.

B36: Table S2 B row 2398 (dsDNA)
DNA 1: GCTTTGCAGTTTCCTCTATGGAACACCAGACACAGT
DNA 2: ACTGTGTCTGGTGTTCCATAGAGGAAACTGCAAAGC
As to B36, the binding signal is 2540 PBM fluorescence, median of replicate spots.

B37: Table S2 B row 1649 (dsDNA)
DNA 1: CCCCCACATCCTGTTTGGTTAGTGGGACACCTCAAC
DNA 2: GTTGAGGTGTCCCACTAACCAAACAGGATGTGGGGG
For the molecule B37, the binding signal was 23400 PBM fluorescence, median of replicate spots.

B38: Table S2 B row 56 (dsDNA)
DNA 1: CAGAGAAACAGGAAGAACAGTGCTTTCAACTGAAAT
DNA 2: ATTTCAGTTGAAAGCACTGTTCTTCCTGTTTCTCTG
With B38, the binding signal was 2500 PBM fluorescence, median of replicate spots.

B39: Table S2 B row 2632 (dsDNA)
DNA 1: TACGTCACTTCCGGGCCGCCGTCCTGCAGGCAAGGG
DNA 2: CCCTTGCCTGCAGGACGGCGGCCCGGAAGTGACGTA
B39: the binding signal is 21800 PBM fluorescence, median of replicate spots.
